Reference: paper PMC4095729 (Alzheimer's Research & Therapy, 2014)

Target: T1, Aβ1-7 peptide (Homo sapiens (deposited entity))
T1 construct: amyloid beta peptide (Aβ), cut from amyloid precursor protein (APP), residues 1-7; Additional file 1 names the peptide Aβ1-6; also called amyloid-β1-7; Aβ residues 1–7
T1 chain: DAEFRHD
Assay: crystal structure; 3D6 Fab co-crystallised with Aβ1-7 or Aβ1-40 peptide, crystals grown at 22 °C; the Aβ1-40 crystals in 200 mM Zn2+; data at 100 K
Conditions: both partners purified

B1: Recombinant 3D6 Fab (Fab, V domains shown)
VH: EVKLVESGGGLVKPGASLKLSCAASGFTFSNYGMSWVRQNSDKRLEWVASIRSGGGRTYYSDNVKGRFTISRENAKNTLYLQMSSLKSEDTALYYCVRYDHYSGSSDYWGQGTTVTVSS
VL: not shown
notes: also called Fab 3D6
  binding result: binds
